Measured values reported in PMC8831504.

Molecular target: cpNanoLuc α-amylase biosensor (VHH-cpNanoLuc-VHH fusion)
Test: luminescence titration of a single-component biosensor; 1 nM biosensor in 200 μl 20 mM Tris-HCl pH 7.2, 100 mM NaCl with 0.25 μl furimazine stock, titrated with its protein ligand; preincubated 15 min at room temperature; luminescence 445-470 nm; fit to a quadratic binding equation

cpNanoLuc α-amylase biosensor (VHH-cpNanoLuc-VHH fusion), sequence (main, as listed by the source): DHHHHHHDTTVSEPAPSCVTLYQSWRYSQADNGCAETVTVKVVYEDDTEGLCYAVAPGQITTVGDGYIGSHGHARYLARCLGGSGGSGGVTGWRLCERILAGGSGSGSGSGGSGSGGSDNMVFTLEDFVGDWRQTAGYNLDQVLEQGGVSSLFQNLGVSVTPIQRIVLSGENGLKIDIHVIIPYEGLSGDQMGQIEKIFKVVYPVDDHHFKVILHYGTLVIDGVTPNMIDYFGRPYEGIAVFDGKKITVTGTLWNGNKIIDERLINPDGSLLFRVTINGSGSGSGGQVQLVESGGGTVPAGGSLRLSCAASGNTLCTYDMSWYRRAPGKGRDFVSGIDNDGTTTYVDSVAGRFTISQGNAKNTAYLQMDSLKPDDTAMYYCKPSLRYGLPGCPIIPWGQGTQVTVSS

Kd: 0.5 nM
B1: human α-amylase (enzyme)
chain: QYSSNTQQGRTSIVHLFEWRWVDIALECERYLAPKGFGGVQVSPPNENVAIHNPFRPWWERYQPVSYKLCTRSGNEDEFRNMVTRCNNVGVRIYVDAVINHMCGNAVSAGTSSTCGSYFNPGSRDFPAVPYSGWDFNDGKCKTGSGDIENYNDATQVRDCRLSGLLDLALGKDYVRSKIAEYMNHLIDIGVAGFRIDASKHMWPGDIKAILDKLHNLNSNWFPEGSKPFIYQEVIDLGGEPIKSSDYFGNGRVTEFKYGAKLGTVIRKWNGEKMSYLKNWGEGWGFMPSDRALVFVDNHDNQRGHGAGGASILTFWDARLYKMAVGFMLAHPYGFTRVMSSYRWPRYFENGKDVNDWVGPPNDNGVTKEVTINPDTTCGNDWVCEHRWRQIRNMVNFRNVVDGQPFTNWYDNGSNQVAFGRGNRGFIVFNNDDWTFSLTLQTGLPAGTYCDVISGDKINGNCTGIKIYVSDDGKAHFSISNSAEDPFIAIHAESKL
